Assay [1] has as its target T1, TcdB1 holotoxin (recombinant full-length TcdB1, VPI10463 strain, expressed in Bacillus megaterium) (Clostridium difficile, VPI10463 strain, UniProt P18177 1-2366).
T1 construct: also called TcdB1 (1-2366)-holotoxin
The assay is described as follows: two-step pull-down, first step (FIG. 15C).

The target in assay [2] is T1, TcdB1 holotoxin (recombinant …).
For assay [3], the target named is TcdB2 (recombinant full-length, R20292 strain [sic], expressed in Bacillus megaterium) (Clostridium difficile, R20291 strain …, UniProt P18177 1-2366).

B1: CSPG4^mini (CSPG4 residues 30-764) (receptor)
chain: ASFFGENHLEVPVATALTDIDLQLQFSTSQPEALLLLAAGPADHLLLQLYSGRLQVRLVLGQEELRLQTPAETLLSDSIPHTVVLTVVEGWATLSVDGFLNASSAVPGAPLEVPYGLFVGGTGTLGLPYLRGTSRPLRGCLHAATLNGRSLLRPLTPDVHEGCAEEFSASDDVALGFSGPHSLAAFPAWGTQDEGTLEFTLTTQSRQAPLAFQAGGRRGDFIYVDIFEGHLRAVVEKGQGTVLLHNSVPVADGQPHEVSVHINAHRLEISVDQYPTHTSNRGVLSYLEPRGSLLLGGLDAEASRHLQEHRLGLTPEATNASLLGCMEDLSVNGQRRGLREALLTRNMAAGCRLEEEEYEDDAYGHYEAFSTLAPEAWPAMELPEPCVPEPGLPPVFANFTQLLTISPLVVAEGGTAWLEWRHVQPTLDLMEAELRKSQVLFSVTRGARHGELELDIPGAQARKMFTLLDVVNRKARFIHDGSEDTSDQLVLEVSVTARVPMPSCLRRGQTYLLPIQVNPVNDPPHIIFPHGSLMVILEHTQKPLGPEVFQAYDPDSACEGLTFQVLGTSSGLPVERRDQPGEPATEFSCRELEAGSLVYVHRGGPAQDLTFRVSDGLQASPPATLKVVAIRPAIQIHRSTGLRLAQGSAMPILPANLSVETNAVGQDVSVLFRVTGALQFGELQKQGAGGVEGAEWWATQAFHQRDVEQGRVRYLSTDPQHHAYDTVENLALEVQ
As to B1, the binding result in assay [1] is “binds”.

B2: Repeat1-Fc (CSPG4 Repeat1, residues 410-551, fused to the N-terminus of the Fc fragment of a human IgG1) (Fc fusion)
chain: ELPEPCVPEPGLPPVFANFTQLLTISPLVVAEGGTAWLEWRHVQPTLDLMEAELRKSQVLFSVTRGARHGELELDIPGAQARKMFTLLDVVNRKARFIHDGSEDTSDQLVLEVSVTARVPMPSCLRRGQTYLLPIQVNPVND
As usually defined, the Kd is the equilibrium constant for the complex coming apart. As usually defined, the koff is the first-order rate constant of dissociation. A word on the kon: it is a measure of how fast the partners come together. Turning to B2, in assay [2], the Kd is ~15.2 nM, the koff is ~0.000108 s⁻¹ and the kon is ~7060 M⁻¹ s⁻¹. Besides, in assay [3], the Kd was ~5.4 nM, the koff was ~4.63e-05 s⁻¹ and the kon is ~8340 M⁻¹ s⁻¹.

The values are drawn from patent US20240033354A1 (University of California, published 2024).
